Here are results for seven molecules from patent publication US20210130452A1 (Merck KGaA, published 2021).

Numbering of substitutions follows the chain as printed. Names may count otherwise. Where two headings read alike, the source gives them in different places.

Experiment [1] concerns the target T1, human IL-17A (human, UniProt Q16552 24-155).
T1 construct: secreted form made in Hek293 cells (GenBank U32659); also called hIL-17A; hIL17A
As to the kind of experiment: AlphaScreen hIL-17A-IL-17RA; vs IL17MS13B03. For orientation: In Alpha technology, singlet oxygen from a donor bead excites a nearby acceptor bead.
T1 sequence (Q16552 other isoform, or with tags, fused parts or gaps): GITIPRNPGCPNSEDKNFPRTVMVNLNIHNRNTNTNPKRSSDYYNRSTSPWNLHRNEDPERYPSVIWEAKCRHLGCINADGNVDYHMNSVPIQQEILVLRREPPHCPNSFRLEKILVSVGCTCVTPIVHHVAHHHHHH

In experiment [2] the target is T2, human IL-17F (human, UniProt Q96PD4 31-163).
T2 construct: made in Hek293 cells (GenBank AF384857); also called hIL-17F; hIL17F
T2 sequence: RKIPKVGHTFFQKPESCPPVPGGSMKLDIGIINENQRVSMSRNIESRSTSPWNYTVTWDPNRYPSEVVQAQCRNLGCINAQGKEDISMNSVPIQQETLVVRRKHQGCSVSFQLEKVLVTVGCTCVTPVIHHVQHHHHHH
As to the kind of experiment: AlphaScreen hIL-17F-IL-17RC; vs IL17MS13B03.

Experiment [3] deals with T1, human IL-17A. As to the kind of experiment: SPR (Biacore) off-rate. (In general: In SPR one partner is held on a chip, and binding of the other changes the refractive index at the surface.)
Experiment [4] deals with T2, human IL-17F. As to the kind of experiment: SPR (Biacore) off-rate.
The target of experiment [5] is T3, human IL-17A/F heterodimer (human, UniProt Q16552 24-155; Q96PD4 31-163, limits assumed).
T3 construct: bought, made in E. coli (R&D Systems 5194-IL/CF); also called hIL-17A/F; hIL17A/F
T3 sequence (Q16552 24-155 limits assumed, one chain of several): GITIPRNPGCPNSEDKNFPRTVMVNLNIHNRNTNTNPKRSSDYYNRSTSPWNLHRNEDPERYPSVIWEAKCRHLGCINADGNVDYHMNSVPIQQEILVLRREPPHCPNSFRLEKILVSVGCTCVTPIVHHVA
As to the kind of experiment: SPR (Biacore) off-rate.

Experiment [6] deals with T4, Cynomolgus monkey IL-17A (Cynomolgus monkey, UniProt A0A2K5TTB0 24-155).
T4 construct: also called cyno IL-17A; cIL-17A
T4 sequence (A0A2K5TTB0 entry or part of it): as the sequence (Q16552 24-155 limits assumed, one chain of several) above, with T3A, P8S, N34S, I77V, N78K, P104R counted along it
As to the kind of experiment: SPR (Biacore) off-rate.

For experiment [7], the target named is T5, Cynomolgus monkey IL-17F (Cynomolgus monkey, UniProt G7P4V0 31-163).
T5 construct: also called cyno IL-17F; cIL-17F
T5 sequence: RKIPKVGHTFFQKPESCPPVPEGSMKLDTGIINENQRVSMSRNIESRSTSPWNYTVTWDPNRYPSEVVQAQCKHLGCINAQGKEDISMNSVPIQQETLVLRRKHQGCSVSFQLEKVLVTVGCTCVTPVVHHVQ
As to the kind of experiment: SPR (Biacore) off-rate.

Experiment [8] deals with T1, human IL-17A. As to the kind of experiment: cell-based or functional assay.
Experiment [9] addresses T2, human IL-17F. As to the kind of experiment: cell-based or functional assay.
Experiment [10] addresses T3, human IL-17A/F heterodimer. As to the kind of experiment: cell-based or functional assay.
Experiment [11] deals with T5, Cynomolgus monkey IL-17F. As to the kind of experiment: cell-based or functional assay.
In experiment [12] the target is T2, human IL-17F. As to the kind of experiment: AlphaScreen hIL-17F-IL-17RC; vs IL17MS13E02.
Experiment [13] deals with T2, human IL-17F. As to the kind of experiment: SPR (Biacore) off-rate. The source holds these as a separate data set.
Experiment [14] deals with T5, Cynomolgus monkey IL-17F. As to the kind of experiment: SPR (Biacore) off-rate. This is another data set of the same source.
The target of experiment [15] is T2, human IL-17F. As to the kind of experiment: cell-based or functional assay. This is another data set of the same source.
Experiment [16] addresses T5, Cynomolgus monkey IL-17F. As to the kind of experiment: cell-based or functional assay. The source holds these as a separate data set.
The target in experiment [17] is T2, human IL-17F. As to the kind of experiment: AlphaScreen IL-17F-IL-17RC; vs IL17MS16A04.
Experiment [18] has as its target T6, human IL-17A (human, UniProt Q16552 24-155).
T6 construct: secreted form (GenBank U32659) expressed in Hek293 with C-terminal 6-His; also called hIL-17A; IL-17A-6HIS
As to the kind of experiment: ELISA, coated IL-17A.
T6 sequence (Q16552 other isoform, or with tags, fused parts or gaps): as the sequence (Q16552 other isoform, or with tags, fused parts or gaps) above
Description: (§1) Binding of a selected panel of anti-IL-17 Nanobodies to IL-17 of other species was assessed using a binding ELISA. […] HRP (horseradish peroxidase) conjugated anti-myc (Serotec, MCA 2200P) was used for detection using esTMB as substrate.

Experiment [19] addresses T7, marmoset IL-17A (marmoset, IL-17A is a disulfide-linked homodimer. One chain is given.).
T7 chain: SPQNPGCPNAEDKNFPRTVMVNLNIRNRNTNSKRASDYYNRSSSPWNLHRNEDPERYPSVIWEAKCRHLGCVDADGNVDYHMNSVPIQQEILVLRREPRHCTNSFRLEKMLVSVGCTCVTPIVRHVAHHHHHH
As to the kind of experiment: ELISA, coated IL-17A.
Description: as §1

In experiment [20] the target is guinea pig IL-17A (guinea pig). As to the kind of experiment: ELISA, coated IL-17A. For orientation: An ELISA detects its analyte on a solid surface through an enzyme-linked reagent.
Description: as §1
For experiment [21], the target named is T8, human IL-17F (human, UniProt Q96PD4 31-163).
T8 construct: GenBank AF384857, expressed in Hek293 as 6-His C-terminal tagged protein; also called hIL-17F; IL-17F-6HIS
T8 sequence: T2 sequence
As to the kind of experiment: ELISA, coated IL-17F.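 Note: binding ELISA on coated antigen from various species, with bound Nanobodies revealed by an HRP-linked anti-myc antibody and esTMB substrate.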
Description: as §1

Experiment [22] addresses T9, marmoset IL-17F (marmoset, UniProt A6N6I9 31-163).
T9 sequence (looked up): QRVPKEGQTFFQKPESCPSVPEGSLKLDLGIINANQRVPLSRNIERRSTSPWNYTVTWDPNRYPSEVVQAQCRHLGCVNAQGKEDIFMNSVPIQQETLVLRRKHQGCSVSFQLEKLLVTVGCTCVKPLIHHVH
As to the kind of experiment: ELISA, coated IL-17F.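 Note: binding ELISA on coated antigen from various species, with bound Nanobodies revealed by an HRP-linked anti-myc antibody and esTMB substrate.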
Description: as §1

The target of experiment [23] is T10, mouse IL-17F (mouse, UniProt Q7TNI7 29-161).
T10 sequence (looked up): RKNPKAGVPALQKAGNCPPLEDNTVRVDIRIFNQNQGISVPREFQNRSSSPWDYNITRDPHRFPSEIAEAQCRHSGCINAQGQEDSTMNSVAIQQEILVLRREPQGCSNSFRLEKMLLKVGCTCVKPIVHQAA
As to the kind of experiment: ELISA, coated IL-17F.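 Note: binding ELISA on coated antigen from various species, with bound Nanobodies revealed by an HRP-linked anti-myc antibody and esTMB substrate.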
Description: as §1

The target of experiment [24] is T11, rat IL-17F (rat, UniProt Q5BJ95 29-161).
T11 sequence (looked up): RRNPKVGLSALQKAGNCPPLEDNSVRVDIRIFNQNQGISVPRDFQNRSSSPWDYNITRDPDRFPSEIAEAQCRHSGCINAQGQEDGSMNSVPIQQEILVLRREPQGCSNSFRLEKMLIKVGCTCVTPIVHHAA
As to the kind of experiment: ELISA, coated IL-17F.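 Note: binding ELISA on coated antigen from various species, with bound Nanobodies revealed by an HRP-linked anti-myc antibody and esTMB substrate.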
Description: as §1

The target in experiment [25] is T8, human IL-17F. As to the kind of experiment: KinExA, 100 pM Nanobody.
Description: The affinity of a limited set of formatted Nanobodies was determined using the KinExA.
Experiment [26] concerns the target T8, human IL-17F. As to the kind of experiment: SPR, IL-17F-Nanobody complex over captured IL-17RC.
Excerpt: The receptor (IL-17RA or IL-17RC) was captured via its human Fc-tail by an anti-human IgG-Fc antibody coated on the chip.
Experiment [27] concerns the target T1, human IL-17A. As to the kind of experiment: SPR (Biacore) off-rate. The source holds these as a separate data set.
Experiment [28] deals with T3, human IL-17A/F heterodimer. As to the kind of experiment: SPR (Biacore) off-rate. The source holds these as a separate data set.
The target in experiment [29] is T4, Cynomolgus monkey IL-17A. As to the kind of experiment: SPR (Biacore) off-rate. This is another data set of the same source.
For experiment [30], the target named is T1, human IL-17A. As to the kind of experiment: cell-based or functional assay. This is another data set of the same source.
The target of experiment [31] is T3, human IL-17A/F heterodimer. As to the kind of experiment: cell-based or functional assay. The source holds these as a separate data set.
For experiment [32], the target named is T1, human IL-17A. As to the kind of experiment: competition ELISA IL-17A-IL-17RA.
Experiment [33] has as its target T1, human IL-17A. As to the kind of experiment: AlphaScreen IL-17A-IL-17RA (average).

B1: IL17MS3068 (VHH)
VHH: EVQLVESGGGLVQPGGSLRLSCAASGRASSINWMGWFRQAPGKEREFVAGIRWSDAYTEYADSVKGRFTISRDNSKNTVYLQMNSLRPEDTAVYYCVLDLSTVRYWGQGTLVTVSS
notes: variant of IL17MS13B03; Kabat numbering
As for B1, the “IC50 fold difference compared to WT” value in experiment [1] is 1.2 fold; in experiment [2], 0.2 fold.

B2: IL17MS3067 (VHH)
VHH: B1 VHH with E1D
notes: as for B1
As usually defined, the koff is the first-order rate constant of dissociation. For B2, the koff in experiment [3] turned out to be 0.000133 s⁻¹; in [4] it was 0.00138 s⁻¹; in experiment [5], 0.000183 s⁻¹; in experiment [6] it was 0.000126 s⁻¹; in experiment [7], 0.00166 s⁻¹. Further, the “IC50 cell based assay hIL17A” value in experiment [8] is 0.7 nM. Besides, in [9], the “IC50 cell based assay hIL17F” value stood at 35 nM. The “IC50 cell based assay hIL17A/F” value in [10] is 1.8 nM. In experiment [11], the “IC50 cell based assay cyno IL17F” value is 13 nM. Also, the “IC50 fold difference compared to WT” value is 1.3 fold in experiment [1] and 0.2 fold in experiment [2].

B3: IL17MS3071 (VHH)
VHH: EVQLVESGGGLVQPGGSLRLSCAASGRTYDALGWLRQAPGKEREFVAAISGSGDDTYYADSVKGRFTISRDNSKNTLYLQMNSLRPEDTAVYYCATRRGLYYVWDANDYENWGQGTLVTVSS
notes: variant of IL17MS13E02; Kabat numbering
On to B3, for which, in experiment [12], the “IC50 fold difference vs WT” value was 0.3 fold.

B4: IL17MS3063 (VHH)
VHH: DVQLVESGGGLVQPGGSLRLSCAASGRTFSSYVVGWFRQAPGKEREFIGAISGSGESIYYAVSEKGRFTISRDNSKNTLYLQMNSLRPEDTAVYYCTADQEFGYLRFGRSEYWGQGTLVTVSS
notes: variant of IL17MS16A04; Kabat numbering
With B4, the koff in [13] was found to be 0.000655 s⁻¹; in experiment [14] it was 0.00111 s⁻¹. Moreover, in experiment [15], the “IC50 cell based assay hIL-17F” value was 14 nM. In addition, the “IC50 cell based assay cyno IL-17F” value in [16] came out at 34.2 nM. In [17], the “IC50 fold difference vs WT” value came to 3.7 fold.

B5: 16A04 (VHH)
VHH: B4 VHH with D1E, P14A, E56D, G66D, S75G, N84S, R87K, P88A, L118Q
notes: Class 3; also called IL17MS16A04
Broadly, the Kd is the constant that tells how readily two partners part at equilibrium. As to B5, the OD is 0.043 OD in experiment [18]; 0.019 OD in experiment [19]; 0.008 OD in experiment [20]; 1.74 OD in [21]; 1.64 OD in experiment [22]; -0.0015 OD in experiment [23]. The same molecule came in with an OD in experiment [24] of 0.0015 OD. The dissociation constant Kd in [25] turned out to be 0.0194 nM. Also, in [26], the “% Biacore binding (IL-17F-NB)-IL-17RC” value came to 4.84%.

B6: IL17MS3060 (VHH)
VHH: DVQLVESGGGLVQPGGSLRLSCTASGTIVNIHVMGWYRQAPGKQRELVALIFSGGSADYADSVKGRFTISRDNSKNTVYLQMNSLRPEDTAVYYCAAEIGYYSGGTYYSSEAHWGQGTLVTVSS
notes: variant of IL17MS04G01; basic = A14P, A74S, E81Q, K83R, Q108L
One may read the IC50 as the concentration that gives 50% inhibition. For the molecule B6, the dissociation rate constant (koff) in [27] worked out at 0.00015 s⁻¹; in [28], 0.000209 s⁻¹; in experiment [29] it was 0.000154 s⁻¹. For the same molecule, the “IC50 cell based assay hIL-17A (IL-6, HT-1080 cells)” value in experiment [30] was 930 pM. Further, the “IC50 cell based assay hIL-17A/F (IL-6, HT-1080 cells)” value in experiment [31] was 5.5 nM. Also, the half-maximal inhibitory concentration (IC50) was determined as 0.181 nM in experiment [32] and 0.081 nM in [33].

B7: IL17MS04G01 (VHH)
VHH: B6 VHH with D1E, P14A, L18Q, S74A, Q81E, R86K, P87A, L119Q
notes: Class 2 Nanobody, wild type; also called WT
In the case of B7, the off-rate (koff) in [27] was 0.000116 s⁻¹; in experiment [28], 0.00017 to 0.00023 s⁻¹; in experiment [29], 0.00032 s⁻¹. Besides, in experiment [30], the “IC50 cell based assay hIL-17A (IL-6, HT-1080 cells)” value was 710 pM. In experiment [31], the “IC50 cell based assay hIL-17A/F (IL-6, HT-1080 cells)” value turned out to be 7.55 nM. The figures for the IC50 in experiment [32] and in experiment [33] were 0.122 nM and 0.093 nM, respectively.
